Laboratory results: the RNAGym collection of RNA variant scans (doi:10.1073/pnas.2313332121)
Variants at the floor of the assay were thinned out.

B1: TPR 5TU (parent)
chain: GGAUCUUCUCGAUCUAACAAAAAAGACAAAUCUGCCACAAAGCUUGAGAGCAUCUUCGGAUGCAGAGGCGGCAGCCUUCGGUGGCGCGAUAGCGCCAACGUUCUCAACUAUGACACGCAAAACGCGUGCUCCGUUGAAUGGAGUUUAUCAUG

Variants of: B1
Assay: polymerase ribozyme fitness, log enrichment relative to wild type (log ratio); higher = more active; in vitro selection for triplet polymerase activity
Summary of the method: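 Fitness compares each genotype's enrichment to that of the wild type on a logarithmic scale, averaging replicates with inverse-variance weights. The logarithm is base 2. Enrichment came from Illumina sequencing of input and output libraries after one triplicate round of in vitro selection, which included frozen incubation at −7 °C, of PCR-built, transcribed mutant libraries of each subunit of a heterodimeric triplet polymerase ribozyme. Only genotypes with ≥10 input reads and ≥1 read per output were kept.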

| Variant | polymerase ribozyme fitness (log ratio) |
| --- | --- |
| U45A G83A A121U G141C U148G | ≤ -4.2 |
| U45A G84U | ≤ -4.2 |
| G42A U82G A91G G133A U134C G140C | ≤ -4.2 |
| A41C U55C U56A C75A G83C C131A U135C | ≤ -4.2 |
| A41G U55A C57G | 0.000485 |
| U45A C54U | -2.52 |
| U45A C54A | ≤ -4.2 |
| U45G A47U U56A G67C A89U C96A A97G A138C | ≤ -4.2 |
| A41U U77A | ≤ -4.2 |
| A41G C63G G74A C75U G92U U144C | -3.87 |
| U44G C57U A91U U109C | ≤ -4.2 |
| A41G U53A U55A A91U C99A U148A | ≤ -4.2 |
| A41U A52C C76U | -3.25 |
| U44A U82C C85A | ≤ -4.2 |
| A41G U45C C57U G92A C108G | -3.34 |
| A41G C103G | -1.94 |
| U45A C96G A121U | -2.93 |
| G42U A52C A66G C76A U90G C95A A106C C108G | ≤ -4.2 |
| A41G C57U A89U | 0.785 |
| C43A U44G U45A | ≤ -4.2 |
| U44A C85A C96G | ≤ -4.2 |

| Variant | polymerase ribozyme fitness (log ratio) |
| --- | --- |
| U45C G50U C57G C87G A137C C149A | ≤ -4.2 |
| C43U C54U G140U | ≤ -4.2 |
| U44A G94A C116U G152U | -4.16 |
| U45C C57A G74C G80U U101A U139A G143C | ≤ -4.2 |
| U44G U56A | -3.19 |
| U44G U45A A47C C54A C57U U61A C93U | ≤ -4.2 |
| A41G C57U U109G A122U | -2.07 |
| G42U C57G G58A C85G | ≤ -4.2 |
| C43G C54A C93U A107G | ≤ -4.2 |
| U45A A66G G80A A142G | ≤ -4.2 |
| A41G G50C | -1.47 |
| G42C U45A C79A G86A U104C A107C | ≤ -4.2 |
| G42C U127G A150G | ≤ -4.2 |
| U44A C57G G70C C96U A107U C149G A150C | ≤ -4.2 |
| C43G C85U C99U A120C G128U A147U | ≤ -4.2 |
| U44A G70C G117A G136U | ≤ -4.2 |
| G42A A52C G94U A97G U144A | ≤ -4.2 |
| C43U A52C G83U A91U | ≤ -4.2 |
| C43U U45A G86A A115C C118G | ≤ -4.2 |
| A41C U53A G58A C63U G94A A107G | ≤ -4.2 |
| G42C A49C A52C C75U C85U A91U | ≤ -4.2 |

| Variant | polymerase ribozyme fitness (log ratio) |
| --- | --- |
| C43U G50A G80C C95A A121U A150C | ≤ -4.2 |
| A41G G58A U82G U144A U145C | 0.156 |
| U45G G50C C57A G59A C75U G94C A106U A107U | ≤ -4.2 |
| U44A G50A C93G | ≤ -4.2 |
| C43G A52U A142C U144A | ≤ -4.2 |
| U45A A49U C75A G83C C87G G117U U127A U139A G152U | ≤ -4.2 |
| A41G G74C C75U C76A A91C G92U U134A G141C | ≤ -4.2 |
| U45A U61A | -4.16 |
| A41U C96U A122C | -1.02 |
| U44A C85G U109G U146C | ≤ -4.2 |
| U45A A97U | -2.84 |
| U44A C95U A97U | ≤ -4.2 |
| A41U G74U C75A A91G U145A U151G | ≤ -4.2 |
| G46A C54A C57G G74U C87A A121G | ≤ -4.2 |
| U44A U82G | ≤ -4.2 |
| A41U G48U C57G C85U A120U | -3.4 |
| U45A G68C U82G G83C G94A C118U | ≤ -4.2 |
| C43U C51U U53G A73G C96G G126U | ≤ -4.2 |
| U45A C79U C103A C118U | ≤ -4.2 |
| A41U G46A G59A G86C | ≤ -4.2 |
| G42U C85G G86C U90G | ≤ -4.2 |

| Variant | polymerase ribozyme fitness (log ratio) |
| --- | --- |
| G42A G81U A91C G92U C95G A107C C108A C114G G141A | ≤ -4.2 |
| U45A C72G C79U G83U U104G | ≤ -4.2 |
| C43G U45G U134C | ≤ -4.2 |
| G42U C76A G81A G124C | ≤ -4.2 |
| U45C A49C G70C G83C A137C U144C C149U | ≤ -4.2 |
| A41U G81A | -0.718 |
| A41C U53A C79A C108U A147C | ≤ -4.2 |
| G42C C87U A113C C118G G141C | ≤ -4.2 |
| U45A G84A U148A | ≤ -4.2 |
| U44C U56A | -3 |
| U45A A66U C76U C85G C129A | ≤ -4.2 |
| A41G G86C | -3.28 |
| G42C C43U A60G C87A C108G A121G A142C | ≤ -4.2 |
| A41U G70A | -3.15 |
| U44A A137U | -3.68 |
| A41U C131G | ≤ -4.2 |
| A41U C95U C99A U146G | -2.29 |
| G42A A49C G62C U77C G88A C96A C132G | ≤ -4.2 |
| U45A A106C | -0.488 |
| C43U G71A U82A C95A A97U C103A G126A C149U | ≤ -4.2 |
